For this test, the target named is T1, bacterial repressor protein LexA (UniProt P0A7C2 1-202).
T1 construct: One entry is used for LexA in all assays; also called LexA target (pEG202); LexA bait
T1 sequence: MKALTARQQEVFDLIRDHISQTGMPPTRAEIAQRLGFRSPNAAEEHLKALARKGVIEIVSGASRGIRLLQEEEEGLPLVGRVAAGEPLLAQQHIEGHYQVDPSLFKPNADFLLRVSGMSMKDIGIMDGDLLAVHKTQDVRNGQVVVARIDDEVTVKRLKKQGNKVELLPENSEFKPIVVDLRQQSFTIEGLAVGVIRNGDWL
Description: SPR (BiacoreX), L2 peptide immobilised on a CM5 chip, LexA injected. A general note: In SPR one partner is held on a chip, and binding of the other changes the refractive index at the surface.

For orientation: Kd means the free concentration of one partner at which half of the binding sites on the other are occupied at equilibrium, for simple one-to-one binding. Low values mean a tighter complex, high ones a looser complex.

Where no end group is shown, it is not given here.

B1: synthetic linear L2 peptide with a TAT importer sequence at the N-terminal (NH2-GRKKRRQRRRPPQ-SRSWDLPGEY) (peptide)
peptide: H-GRKKRRQRRRPPQSRSWDLPGEY
notes: Immobilised on a CM5 sensor chip for SPR
As to B1, the Kd stood at 1700 nM.

For the origin of these results see patent US20100129807A1 (published 2010).
